Measured values: PMC2132615 (The Journal of Cell Biology, 1997)

Biological target: the molecule itself

B1: CBF3 p110 (p110^NDC10) (natural protein)
chain: MRSSILFLLKLMKIMDVQQQQEAMSSEDRFQELVDSLKPRTAHQYKTYYTKYIQWCQLNQIIPTPEDNSVNSVPYKDLPISAELIHWFLLDTLITDDKPGEKREETEDLDEEEENSFKIATLKKIIGSLNFLSKLCKVHENPNANIDTKYLESVTKLHTHWIDSQKAITTNETNNTNTQVLCPPLLKVSLNLWNPETNHLSEKFFKTCSEKLRFLVDFQLRSYLNLSFEERSKIRFGSLKLGKRDRDAIIYHKVTHSAEKKDTPGHHQLLALLPQDCPFICPQTTLAAYLYLRFYGIPSVSKGDGFPNLNADENGSLLQDIPILRGKSLTTYPREETFSNYYTTVFRYCHLPYKRREYFNKCNLVYPTWDEDTFRTFFNEENHGNWLEQPEAFAFPDKIPFDFKKIMNFKSPYTSYSTNAKKDPFPPPKDLLVQIFPEIDEYKRHDYEGLSQNSRDFLDLMEVLRERFLSNLPWIYKFFPNHDIFQDPIFGNSDFQSYFNDKTIHSKGSPILSFDILPGFNKIYKNKTNFYSLLIERPSQLTFASSHNPDTHPTQKQESEGPLQMSQLDTTQLNELLKQQSFEYVQFQTLSNFQILLSVFNKIFEKLEMKKSSRGYILHQLNLFKITLDERIKKSKIDDADKFIRDNQPIKKEENIVNEDGPNTSRRTKRPKQIRLLSIADSSDESSTEDSNVFKKDGESIEDGAYGENEDENDSEMQEQLKSMINELINSKISTFLRDQMDQFELKINALLDKILEEKVTRIIEQKLGSHTGKFSTLKRPQLYMTEEHNVGFDMEVPKKLRTSGKYAETVKDNDDHQAMSTTASPSPEQDQEAKSYTDEQEFMLDKSIDSIEGIILEWFTPNAKYANQCVHSMNKSGNKSWRANCEALYKERKSIVEFYIYLVNHESLDRYKAVDICEKLRDQNEGSFSRLAKFLRKWRHDHQNSFDGLLVYLSN
For B1, the “stoichiometry N” value was 2.
